Our source for the percent of parent values is article PMC8899846.

First the molecules themselves.
B1: wt mouse RtcB-Flag (pCMV3-mRTCB-Flag) [mouse] / PTP1B-C215S (trapping mutant; pcDNA3.1/Zeo-PTP1B [not stated] (parent)
chain 1: MSRNYNDELQFLDKINKNCWRIKKGFVPNMQVEGVFYVNDALEKLMFEELRNACRGGGVGGFLPAMKQIGNVAALPGIVHRSIGLPDVHSGYGFAIGNMAAFDMNDPEAVVSPGGVGFDINCGVRLLRTNLDESDVQPVKEQLAQAMFDHIPVGVGSKGVIPMNAKDLEEALEMGVDWSLREGYAWAEDKEHCEEYGRMLQADPNKVSPRAKKRGLPQLGTLGAGNHYAEIQVVDEIFNEYAAKKMGIDHKGQVCVMIHSGSRGLGHQVATDALVAMEKAMKRDKIIVNDRQLACARIASPEGQDYLKGMAAAGNYAWVNRSSMTFLTRQAFAKVFNTTPDDLDLHVIYDVSHNIAKVEQHVVDGKERTLLVHRKGSTRAFPPHHPLIAVDYQLTGQPVLIGGTMGTCSYVLTGTEQGMTETFGTTCHGAGRALSRAKSRRNLDFQDVLDKLADMGIAIRVASPKLVMEEAPESYKNVTDVVNTCHDAGISKKAIKLRPIAVIKG
chain 2: MEMEKEFEQIDKSGSWAAIYQDIRHEASDFPCRVAKLPKNKNRNRYRDVSPFDHSRIKLHQEDNDYINASLIKMEEAQRSYILTQGPLPNTCGHFWEMVWEQKSRGVVMLNRVMEKGSLKCAQYWPQKEEKEMIFEDTNLKLTLISEDIKSYYTVRQLELENLTTQETREILHFHYTTWPDFGVPESPASFLNFLFKVRESGSLSPEHGPVVVHSSAGIGRSGTFCLADTCLLLMDKRKDPSSVDIKKVLLEMRKFRMGLIQTADQLRFSYLAVIEGAKFIMGDSSVQDQWKELSHEDLEPPPEHIPPPPRPPKRILEPHNGKCREFFPNHQWVKEETQEDKDCPIKEEKGSPLNAAPYGIESMSQDTEVRSRVVGGSLRGAQAASPAKGEPSLPEKDEDHALSYWKPFLVNMCVATVLTAGAYLCYRFLFNSNT

This experiment covers variants of B1. The experiment in a line: co-immunoprecipitation (IP: PTP1B, immunoblot RtcB), band quantification. Particulars: with PTP1B-C215S (trapping mutant; pcDNA3.1/Zeo-PTP1B C215S); HEK cells, 1 μg RtcB-Flag plasmid and 1 μg PTP1B C215S plasmid; n = 3; parent: 100; read off a plot. A general note: Immunoblotting shows a protein as a band on a membrane.
On to chain 1 Y475F, for which the percent of parent came to 55 % WT. The result for chain 1 Y306F Y316F reads 37 % WT. As to chain 1 Y306F Y316F Y475F, the percent of parent was found to be 38 % WT. As to chain 1 Y316F, the percent of parent was found to be 75 % WT.

For the variant chain 1 Y306F, the percent of parent was found to be 100 % WT.
